Data: PMC5382266 (Nature Communications, 2017)

B4: full-length FLAG-tagged human TSLPR (receptor, UniProt Q9HC73-1 23-371, looked up)
chain: QGGAAEGVQIQIIYFNLETVQVTWNASKYSRTNLTFHYRFNGDEAYDQCTNYLLQEGHTSGCLLDAEQRDDILYFSIRNGTHPVFTASRWMVYYLKPSSPKHVRFSWHQDAVTVTCSDLSYGDLLYEVQYRSPFDTEWQSKQENTCNVTIEGLDAEKCYSFWVRVKAMEDVYGPDTYPSDWSEVTCWQRGEIRDACAETPTPPKPKLSKFILISSLAILLMVSLLLLSLWKLWRVKKFLIPSVPDPKSIFPGLFEIHQGNFQEWITDTQNVAHLHKMAGAEQESGPEEPLVVQLAKTEAESPRMLDPQTEEKEASGGSLQLPHQPLQGGDVVTIGGFTFVMNDRSYVAL

Tests used:
[1] = target: T1, full-length HA-tagged human IL-7Rα (human, UniProt P16871-1 21-459)
T1 sequence (looked up): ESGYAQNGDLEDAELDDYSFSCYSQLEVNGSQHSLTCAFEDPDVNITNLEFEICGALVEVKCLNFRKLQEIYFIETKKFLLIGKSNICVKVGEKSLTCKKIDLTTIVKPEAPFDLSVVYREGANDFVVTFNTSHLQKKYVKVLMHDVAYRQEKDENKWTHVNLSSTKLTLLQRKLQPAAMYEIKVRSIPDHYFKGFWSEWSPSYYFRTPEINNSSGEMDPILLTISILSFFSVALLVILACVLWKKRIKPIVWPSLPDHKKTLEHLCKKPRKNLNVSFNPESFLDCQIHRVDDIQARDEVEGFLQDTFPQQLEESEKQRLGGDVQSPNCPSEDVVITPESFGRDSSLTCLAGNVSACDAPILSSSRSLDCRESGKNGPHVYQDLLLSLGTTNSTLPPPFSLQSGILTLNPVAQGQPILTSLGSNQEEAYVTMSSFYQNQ

[2] = target: T1, full-length HA-tagged human IL-7Rα; assay: cell-based or functional assay
[3] = target: T2, biotinylated TSLP^R127A/R130S (human, UniProt Q969D9-1 29-159, R127A | R130S, biotin, C-terminal (in vivo biotinylation)); assay: BLI; biotinylated TSLP^R127A/R130S on streptavidin biosensors, analyte in solution; PBS with 0.01% BSA and 0.002% Tween 20, 25 °C, Octet RED96; 1:1 model; details: both partners purified
T2 construct: signal peptide in the construct; glycosylated, mammalian-derived; also called thymic stromal lymphopoietin; source: HEK293T, co-transfected with pDisplay-BirA-ER, purified from conditioned medium (IMAC, SEC); not shown: Avi tag (from the vector pHL-AVITAG), C-terminal, kept

[4] = target: wild type TSLP (TSLP^R127A/R130S) (human, UniProt Q969D9-1 29-159, R127A | R130S); assay: cell-based or functional assay
[5] = target: B4; assay: cell-based or functional assay
[6] = target: T3, preformed TSLP:TSLPR binary complex (human, UniProt Q969D9-1 29-159; Q9HC73-1 23-221, R127A | R130S, biotin, C-terminal (in vivo biotinylation)); assay: BLI; TSLP-loaded biosensors incubated with 320 nM TSLPR, which was also in the assay buffer and all IL-7Rα samples; PBS with 0.01% BSA and 0.002% Tween 20, 25 °C; 1:1 model; details: both partners purified
T3 construct: signal peptide in the construct; as the chain of m1; extracellular fragment of human TSLPR, NP_071431.2, residues 1-221; as the chain of m2; 320 nM TSLPR was kept in the kinetics buffer and in all IL-7Rα samples; also called TSLP:TSLPR complex; not shown: Avi tag (from the vector pHL-AVITAG), C-terminal, kept

B1: TSLPR-Asp157Ala/Glu159Ala (receptor)
chain: QGGAAEGVQIQIIYFNLETVQVTWNASKYSRTNLTFHYRFNGDEAYDQCTNYLLQEGHTSGCLLDAEQRDDILYFSIRNGTHPVFTASRWMVYYLKPSSPKHVRFSWHQDAVTVTCSDLSYGDLLYEVQYRSPFATAWQSKQENTCNVTIEGLDAEKCYSFWVRVKAMEDVYGPDTYPSDWSEVTCWQRGEIRDACAETPTPPKPKLSKFILISSLAILLMVSLLLLSLWKLWRVKKFLIPSVPDPKSIFPGLFEIHQGNFQEWITDTQNVAHLHKMAGAEQESGPEEPLVVQLAKTEAESPRMLDPQTEEKEASGGSLQLPHQPLQGGDVVTIGGFTFVMNDRSYVAL
B1 gave an EC50 of TSLP-induced STAT5 activity in cells expressing mutant TSLPR and IL-7Rα [1] of 0.085 nM.

B2: TSLPR-Phe156Ala/Asp157Ala/Glu159Ala (receptor)
chain: QGGAAEGVQIQIIYFNLETVQVTWNASKYSRTNLTFHYRFNGDEAYDQCTNYLLQEGHTSGCLLDAEQRDDILYFSIRNGTHPVFTASRWMVYYLKPSSPKHVRFSWHQDAVTVTCSDLSYGDLLYEVQYRSPAATAWQSKQENTCNVTIEGLDAEKCYSFWVRVKAMEDVYGPDTYPSDWSEVTCWQRGEIRDACAETPTPPKPKLSKFILISSLAILLMVSLLLLSLWKLWRVKKFLIPSVPDPKSIFPGLFEIHQGNFQEWITDTQNVAHLHKMAGAEQESGPEEPLVVQLAKTEAESPRMLDPQTEEKEASGGSLQLPHQPLQGGDVVTIGGFTFVMNDRSYVAL
For B2, the EC50 of TSLP-induced STAT5 activity in cells expressing mutant TSLPR and IL-7Rα [1] was 0.4 nM.

B3: TSLPR-Asp176Ala/Glu178Ala/Lys179Ala (receptor)
chain: QGGAAEGVQIQIIYFNLETVQVTWNASKYSRTNLTFHYRFNGDEAYDQCTNYLLQEGHTSGCLLDAEQRDDILYFSIRNGTHPVFTASRWMVYYLKPSSPKHVRFSWHQDAVTVTCSDLSYGDLLYEVQYRSPFDTEWQSKQENTCNVTIEGLAAAACYSFWVRVKAMEDVYGPDTYPSDWSEVTCWQRGEIRDACAETPTPPKPKLSKFILISSLAILLMVSLLLLSLWKLWRVKKFLIPSVPDPKSIFPGLFEIHQGNFQEWITDTQNVAHLHKMAGAEQESGPEEPLVVQLAKTEAESPRMLDPQTEEKEASGGSLQLPHQPLQGGDVVTIGGFTFVMNDRSYVAL
In the case of B3, the EC50 of TSLP-induced STAT5 activity in cells expressing mutant TSLPR and IL-7Rα [1] is reported as 0.049 nM.

With B4 the “EC50 of TSLP-induced STAT5 activity in cells expressing WT TSLPR and IL-7Rα (control of the site III mutants)” value [2] was 0.011 nM.

B5: TSLP-trap1 (other, human)
chain: QGGAAEGVQIQIIYFNLETVQVTWNASKYSRTNLTFHYRFNGDEAYDQCTNYLLQEGHTSGCLLDAEQRDDILYFSIRNGTHPVFTASRWMVYYLKPSSPKHVRFSWHQDAVTVTCSDLSYGDLLYEVQYRSPFDTEWQSKQENTCNVTIEGLDAEKCYSFWVRVKAMEDVYGPDTYPSDWSEVTCWQRGEIRDACAETPTPPKPKLSKGGSGGSGGSGGSGGSGGSGGSGGSGGSGGSGGSGGSGGSGGSGGSGGSGGSGGSGGSGGSESGYAQNGDLEDAELDDYSFSCYSQLEVNGSQHSLTCAFEDPDVNITNLEFEICGALVEVKCLNFRKLQEIYFIETKKFLLIGKSNICVKVGEKSLTCKKIDLTTIVKPEAPFDLSVVYREGANDFVVTFNTSHLQKKYVKVLMHDVAYRQEKDENKWTHVNLSSTKLTLLQRKLQPAAMYEIKVRSIPDHYFKGFWSEWSPSYYFRTPEINNSSGEMD
notes: signal peptide in the construct; extracellular domain of human TSLPR, NP_071431.2, residues 1-231 (native secretion signal of TSLPR used); flexible (Gly-Gly-Ser)20 linker, written out from the printed formula; extracellular part of human IL-7Rα, NP_002176.2, residues 21-239; also called Human TSLP-trap1; hTSLPtrap1
For B5, the Kd [3] was 0.12 nM, the koff [3] was 2e-05 s⁻¹ and the “IC50 of inhibition of STAT5 activity induced by 10 pM TSLP in HEK293T cells expressing TSLPR and IL-7Rα” value [4] was 67 pM.

B6: TSLP-trap2 (other, human)
chain: ESGYAQNGDLEDAELDDYSFSCYSQLEVNGSQHSLTCAFEDPDVNITNLEFEICGALVEVKCLNFRKLQEIYFIETKKFLLIGKSNICVKVGEKSLTCKKIDLTTIVKPEAPFDLSVVYREGANDFVVTFNTSHLQKKYVKVLMHDVAYRQEKDENKWTHVNLSSTKLTLLQRKLQPAAMYEIKVRSIPDHYFKGFWSEWSPSYYFRTPEINNSSGEMDGGSGGSGGSGGSGGSGGSGGSGGSGGSGGSGGSGGSGGSGGSGGSGGSGGSGGSGGSGGSQGGAAEGVQIQIIYFNLETVQVTWNASKYSRTNLTFHYRFNGDEAYDQCTNYLLQEGHTSGCLLDAEQRDDILYFSIRNGTHPVFTASRWMVYYLKPSSPKHVRFSWHQDAVTVTCSDLSYGDLLYEVQYRSPFDTEWQSKQENTCNVTIEGLDAEKCYSFWVRVKAMEDVYGPDTYPSDWSEVTCWQRGEIRDACAETPTPPKPKLSK
For B6, the “IC50 of inhibition of STAT5 activity induced by 10 pM TSLP in HEK293T cells expressing TSLPR and IL-7Rα” value [4] was 44 pM.

B7: TSLP-Arg149Ser (ligand, human, UniProt Q969D9-1 29-159, looked up)
chain: YDFTNCDFEKIKAAYLSTISKDLITYMSGTKSTEFNNTVSCSNRPHCLTEIQSLTFNPTAGCASLAKEMFAMKTKAALAIWCPGYSETQINATQAMKKARKSKVTTNKCLEQVSQLQGLWSRFNRPLLKQQ
In the case of B7, the “EC50 of STAT5 activity (luciferase reporter) induced by TSLP in HEK293T cells expressing WT TSLPR and IL-7Rα” value (from here on “EC50 of STAT5 activity”) [5] is reported as 0.0028 nM.

B8: TSLP-Arg149Ser/Arg150Ser (ligand, human, UniProt Q969D9-1 29-159, looked up)
chain: YDFTNCDFEKIKAAYLSTISKDLITYMSGTKSTEFNNTVSCSNRPHCLTEIQSLTFNPTAGCASLAKEMFAMKTKAALAIWCPGYSETQINATQAMKKARKSKVTTNKCLEQVSQLQGLWSSFNRPLLKQQ
In the case of B8, the “EC50 of STAT5 activity” value [5] is reported as 0.1 nM.

B9: TSLP-Arg150Ser (ligand, human, UniProt Q969D9-1 29-159, looked up)
chain: YDFTNCDFEKIKAAYLSTISKDLITYMSGTKSTEFNNTVSCSNRPHCLTEIQSLTFNPTAGCASLAKEMFAMKTKAALAIWCPGYSETQINATQAMKKARKSKVTTNKCLEQVSQLQGLWRSFNRPLLKQQ
With B9 the “EC50 of STAT5 activity” value [5] was 0.0095 nM.

B10: TSLP-Arg153Ser (ligand, human, UniProt Q969D9-1 29-159, looked up)
chain: YDFTNCDFEKIKAAYLSTISKDLITYMSGTKSTEFNNTVSCSNRPHCLTEIQSLTFNPTAGCASLAKEMFAMKTKAALAIWCPGYSETQINATQAMKKARKSKVTTNKCLEQVSQLQGLWRRFNSPLLKQQ
With B10 the “EC50 of STAT5 activity” value [5] was 0.019 nM.

B11: soluble TSLPR ectodomain (domain or fragment, human, UniProt Q9HC73-1 23-221, looked up)
chain: QGGAAEGVQIQIIYFNLETVQVTWNASKYSRTNLTFHYRFNGDEAYDQCTNYLLQEGHTSGCLLDAEQRDDILYFSIRNGTHPVFTASRWMVYYLKPSSPKHVRFSWHQDAVTVTCSDLSYGDLLYEVQYRSPFDTEWQSKQENTCNVTIEGLDAEKCYSFWVRVKAMEDVYGPDTYPSDWSEVTCWQRGEIRDACAET
For B11, the “IC50 of inhibition of STAT5 activity induced by 10 pM TSLP by an equimolar mixture of the soluble TSLPR and IL-7Rα ectodomains” value [4] was 49 nM.

B12: soluble IL-7Rα ectodomain (domain or fragment, human, UniProt P16871-1 21-239, looked up)
chain: ESGYAQNGDLEDAELDDYSFSCYSQLEVNGSQHSLTCAFEDPDVNITNLEFEICGALVEVKCLNFRKLQEIYFIETKKFLLIGKSNICVKVGEKSLTCKKIDLTTIVKPEAPFDLSVVYREGANDFVVTFNTSHLQKKYVKVLMHDVAYRQEKDENKWTHVNLSSTKLTLLQRKLQPAAMYEIKVRSIPDHYFKGFWSEWSPSYYFRTPEINNSSGEMD
notes: signal peptide in the construct; extracellular fragment of human IL-7Rα, NP_002176.2, residues 1-239; also called interleukin 7 receptor α-chain
B12 showed a Kd [6] of 29 nM, a koff [6] of 0.0036 s⁻¹ and a kon [6] of 123000 M⁻¹ s⁻¹.
